{
  "source": "paper doi:10.1101/2023.08.11.553033",
  "binders": {"B1": {"name": "PBM half site TTCAAGAA (dsDNA)", "DNA 1": "AAAAGTTCAAGAACAACC", "DNA 2": "GGTTGTTCTTGAACTTTT"}, "B2": {"name": "PBM half site TTCCGAAA (dsDNA)", "DNA 1": "AAAAGTTCCGAAACAACC", "DNA 2": "GGTTGTTTCGGAACTTTT"}, "B3": {"name": "PDR5_4 G4T G14A (paper numbering) (dsDNA)", "DNA 1": "AAACTTCCGTGGAAAACC", "DNA 2": "GGTTTTCCACGGAAGTTT"}, "B4": {"name": "PDR5_4 C4A G4T G14A (paper numbering) (dsDNA)", "DNA 1": "AAAATTCCGTGGAAAACC", "DNA 2": "GGTTTTCCACGGAATTTT"}, "B5": {"name": "PBM half site 18mer (dsDNA)", "DNA 1": "AAAAGTTCCGGAACAACC", "DNA 2": "GGTTGTTCCGGAACTTTT"}},
  "key": {"[1]": {"target": "T1, Pdr3p DBD (Saccharomyces cerevisiae, UniProt P33200 1-184)", "T1 sequence": "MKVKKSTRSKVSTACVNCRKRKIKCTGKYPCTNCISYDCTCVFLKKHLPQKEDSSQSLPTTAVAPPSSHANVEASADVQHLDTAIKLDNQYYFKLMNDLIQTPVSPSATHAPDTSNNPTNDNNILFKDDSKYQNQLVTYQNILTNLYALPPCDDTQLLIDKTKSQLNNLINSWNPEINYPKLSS", "experiment": "competition fluorescence polarization"}, "[2]": {"target": "T2, Pdr1p DBD (Saccharomyces cerevisiae, UniProt P12383 1-207)", "T2 sequence": "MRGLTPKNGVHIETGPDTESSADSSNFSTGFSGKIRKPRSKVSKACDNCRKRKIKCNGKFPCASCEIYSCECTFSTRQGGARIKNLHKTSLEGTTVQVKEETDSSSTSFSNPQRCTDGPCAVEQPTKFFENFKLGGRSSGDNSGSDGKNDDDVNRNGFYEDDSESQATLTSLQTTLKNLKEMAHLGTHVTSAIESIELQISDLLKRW", "experiment": "competition fluorescence polarization"}, "[3]": {"target": "T2, Pdr1p DBD", "experiment": "competition fluorescence polarization", "remark": "listed apart in the source"}, "[4]": {"target": "T1, Pdr3p DBD", "experiment": "competition fluorescence polarization", "remark": "listed apart in the source"}, "[5]": {"target": "T2, Pdr1p DBD", "experiment": "competition fluorescence polarization", "remark": "listed apart in the source"}, "[6]": {"target": "T2, Pdr1p DBD", "experiment": "competition fluorescence polarization", "remark": "listed apart in the source"}, "[7]": {"target": "T1, Pdr3p DBD", "experiment": "competition fluorescence polarization", "remark": "listed apart in the source"}, "[8]": {"target": "T2, Pdr1p DBD", "experiment": "fluorescence polarization"}, "[9]": {"target": "T1, Pdr3p DBD", "experiment": "fluorescence polarization"}},
  "note": "Read-outs that look alike come from different tables or passages of the source.",
  "data": [
    {"binder": "B1", "values": [
      {"measurement": "binding signal", "setting": "[1]", "value": "2.5 fold lower affinity than PBM half site"},
      {"measurement": "binding signal", "setting": "[2]", "value": "30 fold lower affinity than PBM half site"}
    ]},
    {"binder": "B2", "values": [
      {"measurement": "binding result", "setting": "[3]", "value": "binds"},
      {"measurement": "binding result", "setting": "[4]", "value": "binds"}
    ]},
    {"binder": "B3", "values": [
      {"measurement": "binding result", "setting": "[5]", "value": "binds"}
    ]},
    {"binder": "B4", "values": [
      {"measurement": "binding result", "setting": "[6]", "value": "binds"},
      {"measurement": "binding result", "setting": "[7]", "value": "binds"}
    ]},
    {"binder": "B5", "values": [
      {"measurement": "Kd", "setting": "[8]", "value": 229, "unit": "nM"},
      {"measurement": "Kd", "setting": "[9]", "value": 118, "unit": "nM"}
    ]}
  ]
}
